B1: ABBV-011 (SC17 conjugated to the calicheamicin linker drug LD19.10) (antibody, V domains shown)
VH: EVQLVQSGAEVKKPGESLKISCKGSGYSFTSSWINWVRQMPGKGLEWMGRIYPGEGDTNYSGNFEGQVTISADKSISTAYLQWSSLKASDTAMYYCTRGLVMDYWGQGTLVTVSS
VL: EIVLTQSPATLSLSPGERATLSCRASQSVDYNGISYMHWYQQKPGQAPRLLIYAASNVQSGIPARFSGSGSGTDFTLTISSLEPEDFAVYYCQQSIEDPPTFGGGTKVEIK
B2: SC17, humanized anti-SEZ6 monoclonal antibody (antibody, V domains shown)
VH: EVQLVQSGAEVKKPGESLKISCKGSGYSFTSSWINWVRQMPGKGLEWMGRIYPGEGDTNYSGNFEGQVTISADKSISTAYLQWSSLKASDTAMYYCTRGLVMDYWGQGTLVTVSS
VL: EIVLTQSPATLSLSPGERATLSCRASQSVDYNGISYMHWYQQKPGQAPRLLIYAASNVQSGIPARFSGSGSGTDFTLTISSLEPEDFAVYYCQQSIEDPPTFGGGTKVEIK

Legend:
[1] = target: cynomolgus monkey SEZ6, ectopically expressed on 293T cells (Macaca fascicularis, UniProt A0A2K5WPJ4); test: flow cytometry on cells
[2] = target: murine SEZ6, ectopically expressed on 293T cells (Mus musculus (Mouse)., UniProt Q7TSK2); test: flow cytometry on cells
Chain of murine SEZ6, ectopically expressed on 293T cells (Q7TSK2 20-991): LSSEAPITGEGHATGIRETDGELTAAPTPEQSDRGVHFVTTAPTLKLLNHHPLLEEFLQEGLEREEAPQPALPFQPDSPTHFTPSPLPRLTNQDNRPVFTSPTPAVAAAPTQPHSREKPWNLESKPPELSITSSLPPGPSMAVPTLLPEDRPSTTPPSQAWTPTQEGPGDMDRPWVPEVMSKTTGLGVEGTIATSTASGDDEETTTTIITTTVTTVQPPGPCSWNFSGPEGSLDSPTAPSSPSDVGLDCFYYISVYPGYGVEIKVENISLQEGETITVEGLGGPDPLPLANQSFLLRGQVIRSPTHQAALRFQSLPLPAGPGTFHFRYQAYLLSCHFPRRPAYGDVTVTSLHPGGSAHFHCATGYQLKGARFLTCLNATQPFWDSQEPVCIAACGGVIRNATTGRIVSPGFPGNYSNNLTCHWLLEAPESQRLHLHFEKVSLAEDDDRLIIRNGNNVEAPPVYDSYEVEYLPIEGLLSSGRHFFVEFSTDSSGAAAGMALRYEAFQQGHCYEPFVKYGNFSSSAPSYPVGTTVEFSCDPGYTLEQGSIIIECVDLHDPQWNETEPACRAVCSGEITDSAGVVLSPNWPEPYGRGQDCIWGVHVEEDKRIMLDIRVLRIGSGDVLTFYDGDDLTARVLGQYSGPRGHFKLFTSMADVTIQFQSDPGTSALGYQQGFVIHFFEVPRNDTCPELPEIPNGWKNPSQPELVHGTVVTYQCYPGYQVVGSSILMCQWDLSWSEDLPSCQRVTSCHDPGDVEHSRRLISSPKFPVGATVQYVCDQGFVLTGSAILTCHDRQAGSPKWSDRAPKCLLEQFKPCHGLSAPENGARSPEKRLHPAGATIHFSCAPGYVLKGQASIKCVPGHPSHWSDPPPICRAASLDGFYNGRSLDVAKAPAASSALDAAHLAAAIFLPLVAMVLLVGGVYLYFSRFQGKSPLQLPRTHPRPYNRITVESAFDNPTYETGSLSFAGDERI

Row | Binder | binding result [1] | binding result [2]
1 | B1 | binds | binds
2 | B2 | binds | 
